How the values were obtained:
Format in all cases: in vivo
[1] = test system: Actinobacillus pleuropneumoniae (App); experiment: App challenge of pigs, prophylactic low or high doses of IL-1ra or IL-1ra+IL-4 (Table 8); conditions: for rate of gain: last 10 days of challenge, FIG. 44
Protocol: Blood was sampled from pigs by venipuncture at −24 h, +0 h, +24 h and +3 weeks from challenge. Blood was assayed for immunological parameters as previously described. Pigs were weighed at day −1, day 10 and at 3 weeks.

[2] = test system: Actinobacillus pleuropneumoniae (App); experiment: App challenge of pigs, prophylactic recombinant IL-1ra, plasmid IL-1ra or flunix (Example 5); parameters: improvements in weight gain over saline controls / reduction in weight gain compared to saline controls / reduction in clinical symptoms compared to saline / reduction of pleurisy compared to saline treated controls / reduction in affected lung mass compared to saline treated controls: concentration or dose not given beside the values
Protocol: Male pigs, with a mean starting weight of 52 kg, were allocated to 5 treatment groups as outlined in Table 6. Pigs were housed in group pens, with each pen containing a replicate from each of the treatment groups. The starting weights of each treatment group and each pen were equal prior to the start of the trial. Pigs were provided with pelleted feed and water ad libitum.
Recombinant IL-1ra and saline-were administered as 1 ml doses, given subcutaneously behind the ear. Plasmids were administered in 1 ml doses, given intramuscularly in the hind-leg. Flunix was administered as a 2 ml dose according to the manufacturer's instructions, and delivered intramuscularly in the neck. The timetable of administration is outlined in Table 6 below.
Prior to challenge, pigs were treated with recombinant cytokines, flunix or plasmids as described Table 7. Pigs were anaesthetised and infected intratracheally with 7.5×10^5 pfu App on day 0.
Blood was sampled from pigs by venipuncture at 0, 24 h and 14 days post-challenge. Blood was assayed for immunological parameters as previously described. Pigs were weighed weekly from delivery of plasmids and for 2 weeks after challenge.
At the conclusion of the trial, pigs were euthanased and the lungs removed for post-mortem examination. Lungs were scored for pleurisy from 0-5 (FIGS. 39 and 40) and the degree of pleuropneumonia was determined by weighing affected lung and expressed as a percentage of total lung weight (FIGS. 41 and 42). Pigs treated with flunix and IL-1ra had less pleurisy than the saline controls (FIG. 39).

[3] = test system: Actinobacillus pleuropneumoniae (App); experiment: as above; conditions: day 13 after challenge compared with pre-challenge levels; FIG. 35
[4] = Growth performance of weaner pigs treated with IL-1ra or saline, with or without in-feed antibiotics (Example 1); conditions: for warm carcass weight: FIG. 6; for rate of gain over the grower phase: D79 and D93, FIG. 3
Protocol: Recombinant porcine. IL-1ra was expressed in E. coli and purified using a polyhis tag system. IL-1ra was tested for biological activity in a bioassay prior to the start of the experiment.
Male weaner pigs (28 days old) were allocated to treatment groups of 20 as described in Table 1. The mean weight for each treatment group was equal, with equal variance. Pigs were housed in group pens of 20, with 2 pens provided with medicated water and feed as per current industry standards, while 2 pens were given unmedicated water and feed. Pigs were injected twice weekly with recombinant IL-1ra or saline (control), in a volume of 1 ml, for the duration of the weaner phase (42 days), as described in Table 2.
Upon commencement of the weaner phase (day 0) and upon completion of the weaner phase (day 42), pigs were […]

[5] = test system: Brachyspira (Serpulina) hyodysenteriae; experiment: Swine dysentery challenge of weaner pigs, prophylactic treatment (Example 4); conditions: for reduction in spirochaete culture scores at post-mortem compared to saline: FIG. 25
Protocol: Male pigs with a mean starting weight of 6.5 kg, were allocated to treatment groups consisting of eight pigs. Pigs were housed in group pens, with each pen containing a replicate from each of the treatment groups. One group of 8 pigs was housed in a separate room and left uninfected to act as untreated controls. Pigs were provided with pelleted feed and water ad libitum.
Prior to swine dysentery challenge, pigs were treated with 200 μg recombinant IL-1ra or 1 ml saline via intramuscular injection. Lincocin was delivered as a 2 ml intramuscular injection according to the manufacturer's instructions. Cytokines, antibiotics and challenges were performed at intervals described in the experimental protocol outlined in Table 5. Pigs were infected with Brachyspira hyodysenteriae at day 0, day 1 and day 2, given as an oral bolus of 120 ml of spirochaete culture in log phase of growth, containing approximately 10^8 cells.
Faecal swabs and blood samples were taken from each pig at intervals described in Table 5. Faecal swabs were cultured for the presence of spirochaetes. Blood samples were assayed for immunological parameters as described in Example 3 above. Pigs were weighed at weekly intervals throughout the experiment, which was terminated by euthanasia on days 19 and 20 after the initial challenge. At post-mortem, swabs from areas of the hindgut were cultured for the presence of spirochaetes, and the gross pathological condition of the gastro-intestinal tissue noted.

B1: IL-1ra: Recombinant porcine IL-1ra expressed in E. coli and purified using a polyhis tag system (protein, UniProt Q29056 26-177, looked up)
Interleukin-1 receptor …: HPLGKRPCRMQAFRIWDVNQKTFYLRNNQLVAGYLQGPNTKLEEKIDVVPVEPHFVFLGIHGGKLCLSCVKSGDEMKLQLDAVNITDLRKNSEQDKRFTFIRSDSGPTTSFESAACPGWFLCTALEADQPVGLTNTPKAAVKVTKFYFQQDQ
modifications: polyhistidine tag
notes: Recombinant porcine IL-1ra expressed in E. coli and purified using a polyhis tag system
With B1 the “improved growth compared to saline treated controls” value ([1]; 21 days of App challenge, low and high doses, FIG. 46) was 13.5%, the “amount of lung affected by App lesions” value ([1]; high dose, FIG. 47) was “reduced the amount of lung affected by App lesions” and the “production of the pro-inflammatory cytokine IL-8 (mRNA in lung tissue)” value ([1]; high dose, FIG. 49) was “greatly reduced”. The “increase in rate of gain vs saline” value ([1]; high dose, first 10 days of App challenge, FIG. 43) was greater than 100 g/day, the “degree of pleurisy seen at post-mortem” value ([1]; high doses, FIG. 48) was “reduced” and the “production of TNFα (mRNA in lung tissue)” value ([1]; high doses, FIG. 50) was “inhibited”. For the same molecule, the rate of gain ([1]; high doses) was 1170 g/day, the “weight gained during the 21-day challenge period” value ([1]; low and high doses, FIG. 45) was 17.9 kg and the rate of gain ([1]; low doses) was 1250 g/day. For the same molecule, the “improvements in weight gain over saline controls” value ([2]; 14d App challenge, FIG. 33) was 53.8%, the “daily rate of gain” value ([2]; 14d challenge with App, FIG. 32) was 667 g per day and the “reduction in clinical symptoms compared to saline” value ([2]; FIG. 38) was 72%. The “heavier at the termination of the experiment than saline treated peers” value ([2]; after 2 weeks of challenge) was 4 kg, the “improvement in growth vs saline” value ([2]; after 2 weeks of challenge) was 69% and the “production of IL-6 (mRNA in peripheral blood)” value ([2]; after App challenge, compared with saline treated controls, FIG. 36) was “reduce the production”. The “growth during the week of challenge” value ([2]; first week after App challenge, FIG. 30) was “positive growth”, the “clinical signs of App disease (mean clinical scores over 30 visits)” value ([2]; first week of challenge, vs saline-treated controls, p<0.05, FIG. 37) was “significantly reduced clinical signs of disease” and the “reduction in affected lung mass compared to saline treated controls” value ([2]; percentage of lung affected by App lesions, FIG. 42) was 73.9%. The “reduction of pleurisy compared to saline treated controls” value ([2]; pleurisy score 0-5 at necropsy, FIG. 40) was 22%, the “levels of TNFα protein in the serum” value [3] was “reduced levels of TNFα” and the “rate of gain over weeks 5 and 6 of the weaner phase” value ([4]; 200 μg IL-1ra twice weekly, both medicated and non-medicated feeding regimes, FIG. 2) was “outperforming saline treated pigs”. For the same molecule, the “rate of gain over the first 4 weeks of the weaner phase” value ([4]; 200 μg IL-1ra twice weekly, vs saline controls, FIG. 1) was “performed as well as saline controls”, the warm carcass weight ([4]; IL-1ra in absence of antibiotics) was “equal to that obtained by pigs fed antibiotics and treated with saline” and the warm carcass weight ([4]; IL-1ra in presence of antibiotics) was “greater than that of their saline-treated counterparts”. The “average weight at slaughter, heavier than pigs treated with saline and provided with in-feed antibiotics” value ([4]; IL-1ra in weaner phase in absence of in-feed antibiotics, FIG. 5) was 0.7 kg, the “rate of gain over the grower phase” value ([4]; IL-1ra in weaner phase with medicated diet) was “highest rate of gain” and the “rate of gain over the grower phase” value ([4]; IL-1ra in weaner phase without in-feed medication) was “grow as quickly as pigs treated with saline and provided with in-feed medication”. The “rate of gain over the finisher phase” value ([4]; IL-1ra in weaner phase without medicated diet, FIG. 4) was “highest rate of gain of all groups”, the “feed conversion ratio during the finisher phase” value ([4]; day 93-day 133, treatment during weaner phase, IL-1ra in absence of in-feed antibiotics, FIG. 7) was 2.49 and the “reduction in spirochaete culture scores at post-mortem compared to saline” value (shortened to “reduction in spirochaete culture scores”) ([5]; anterior colon) was 15.8%. For the same molecule, the “reduction in spirochaete culture scores” value ([5]; faecal spirochaetes) was 42.1%, the “reduction in spirochaete culture scores” value ([5]; posterior colon) was 47.1% and the “net reduction in spirochaetes throughout the GIT” value ([5]; vs saline) was 27%. For the same molecule, the “faecal condition at post-mortem (clinical signs)” value ([5]; vs saline treated controls, FIG. 26) was “fewer signs of dysentery-affected faeces” and the “production of the pro-inflammatory cytokines TNF, IL-8 and IL-1 (mRNA in peripheral blood)” value ([5]; vs saline treated controls, FIGS. 27, 28 and 29) was “reduce the production”.
